These results are taken from PMC9352346, “Arl15 upregulates the TGFβ family signaling by promoting the assembly of the Smad-complex” (eLife, 2022).

This experiment deals with T1, His-Smad4 (UniProt Q13485 1-552).
T1 construct: Smad4; also called purified His-tagged Smad4; source: E. coli BL21, purified (nickel-nitrilotriacetic acid agarose)
T1 sequence (looked up): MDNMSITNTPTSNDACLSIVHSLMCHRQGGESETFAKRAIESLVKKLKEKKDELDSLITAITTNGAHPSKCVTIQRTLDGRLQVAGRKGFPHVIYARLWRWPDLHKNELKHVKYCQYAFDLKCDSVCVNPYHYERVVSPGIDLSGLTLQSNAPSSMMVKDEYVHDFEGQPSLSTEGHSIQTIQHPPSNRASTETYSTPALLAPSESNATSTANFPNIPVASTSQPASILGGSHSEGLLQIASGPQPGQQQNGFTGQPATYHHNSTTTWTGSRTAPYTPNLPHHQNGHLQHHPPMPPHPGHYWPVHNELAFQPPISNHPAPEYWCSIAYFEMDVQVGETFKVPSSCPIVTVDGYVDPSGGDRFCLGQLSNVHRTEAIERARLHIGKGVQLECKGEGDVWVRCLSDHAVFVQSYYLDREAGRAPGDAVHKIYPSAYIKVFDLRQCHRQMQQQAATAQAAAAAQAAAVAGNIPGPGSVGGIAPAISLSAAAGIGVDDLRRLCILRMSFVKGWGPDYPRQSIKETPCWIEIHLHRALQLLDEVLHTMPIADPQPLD
Description: pull-down; bead-immobilized GST-Arl15-AL incubated with purified His-tagged Smads (His-Smad4, His-Smad2-SE, alone or together); immunoblotted against His-tag. The settings on record: both partners purified. Background: In western blotting, separated proteins are transferred to a membrane and probed.

B1: His-Smad2-SE (natural protein, UniProt Q15796 1-467, looked up)
chain: MSSILPFTPPVVKRLLGWKKSAGGSGGAGGGEQNGQEEKWCEKAVKSLVKKLKKTGRLDELEKAITTQNCNTKCVTIPSTCSEIWGLSTPNTIDQWDTTGLYSFSEQTRSLDGRLQVSHRKGLPHVIYCRLWRWPDLHSHHELKAIENCEYAFNLKKDEVCVNPYHYQRVETPVLPPVLVPRHTEILTELPPLDDYTHSIPENTNFPAGIEPQSNYIPETPPPGYISEDGETSDQQLNQSMDTGSPAELSPTTLSPVNHSLDLQPVTYSEPAFWCSIAYYELNQRVGETFHASQPSLTVDGFTDPSNSERFCLGLLSNVNRNATVEMTRRHIGRGVRLYYIGGEVFAECLSDSAIFVQSPNCNQRYGWHPATVCKIPPGCNLKIFNNQEFAALLAQSVNQGFEAVYQLTRMCTIRMSFVKGWGAEYRRQTVTSTPCWIELHLNGPLQWLDKVLTQMGSPSVRCSEME
notes: Smad2 with phosphomimetic mutations S465E/S467E; also called His-Smad2 with S465E/S467E mutations; source: E. coli BL21, purified (nickel-nitrilotriacetic acid agarose)
Turning to B1, the binding result was “binds”.

B2: GST-Arl15-AL (natural protein, human, UniProt Q9NXU5 1-204, looked up)
chain: MSDLRITEAFLYMDYLCFRALCCKGPPPARPEYDLVCIGLTGSGKTSLLSKLCSESPDNVVSTTGFSIKAVPFQNAILNVKELGGLDNIRKYWSRYYQGSQGVIFVLDSASSEDDLEAARNELHSALQHPQLCTLPFLILANHQDKPAARSVQEIKKYFELEPLARGKRWILQPCSLDDMDALKDSFSQLINLLEEKDHEAVRM
notes: Arl15, human, A86L; also called bead-immobilized Arl15-AL; GST-Arl15-A86L; source: E. coli BL21, purified (Glutathione Sepharose 4B)
Turning to B2, the binding result is recorded as “binds”.
